Test results published in the DeepSol protein solubility set.

Experiment: soluble on expression in E. coli; label from the status in PepcDB or PDB records

| Sequence | soluble on expression in E. coli |
| --- | --- |
| MKRTIFLLMSILLLLTACGDGHKQTSSDKEQSEHKDNHNKNQVKQIATDKKVQGDNYRTILPFKESQARGLLQDNMANGYNGEDFESGLLELSKEIFPTNKYLYQDGQYLDKKTINAYLDPKYTKKEIDKMSEKEKKSKNANENLGLNPSHNGETDEEKIAKNSPAYLSNILEQDFYGNSDSKGKNIKGMTIGLAMNSVYYYKKEKDGETFSKDLSDKEIEKQGKQMASEMLSRLRENSDLKDIPIHFAIYKQSSQDSITPGEFIVGTTVEEGKTKINSWDNINEKAALIPSSTAADYDETLNNNFKQFNDNLQSYFSNFTQAVGKVKFVNKKAKQLTVDLPIDYYGQAETIGITQYVTEQAEKYFDKLDEYEIRIKDGNTPRALISKTKDDKEPQVHIYHN | not soluble |
| MGSDKIHHHHHHMPELTEFQKKRLENIKRNNDLLKKLHLSGVASQIKHEAGVLEKSRAPAKKKQKTTNTRATKSASPTLPTRRSRRLRGESADDVKGIPNVNDNQLLKMGSPDGQDKNFIDAIKEKPVIGDVKLSDLIKDEDESALLEKFKRFNNGNFSSGDFFEEIKKRQGDVTGMDEFDLDLYDVFQPNEIKITYERISATYFHPAMEKKLIIAGDTSGTVGFWNVRDEPLADSEEDRMEEPDITRVKLFTKNVGRIDCFPADTSKILLTSYDGSIRSVHLNNLQSEEVLTLKNEYDDSLGISDCQFSYENPNVLFLTTLGGEFTTFDTRVKKSEYNLRRLADKKIGSMAINPMRPYEIATGSLDRTLKIWDTRNLVKKPEWSQYEDYPSHEIVSTYDSRLSVSAVSYSPTDGTLVCNGYDDTIRLFDVKSRDHLSAKLEPKLTIQHNCQTGRWTSILKARFKPNKNVFAIANMKRAIDIYNSEGQQLAHLPTATVPAVISWHPLRNWIAGGNSSGKIFLFTDDSGTIKQEE | not soluble |
| MTYDYVIVGGGIVGVSTGWQLKRRYPEKSVLLIEKEAGFSRHQTGHNSGVIHAGVYYAPGSLKADFCKRGVERTLAFCAQHNIPVENCGKLLVATNEQELERMHALYDRCLQNQIDVEKLDAAQLKLAEPNIRGLGAILVKATSIVNYRLVTEKMAEAFMQLGGDVKIGTEVVGLEETPSSITLTCQQKNQRVSYQAKFLVTCSGLMADRLTKMLGLPTDFQIIPYRGEYYRLAPKHNQVVRHLIYPIPDPELPFLGVHLTRMIDGCVTVGPN | not soluble |
| MSLNPNVQECSFEETIEAHLFANGYASLPASDYDAALALFPTSVLTFVRATQLKEWAKLEALHGANTEATVLKDLTHWLDTHGTLAVLRNGFKCYGRTLRVAYFKPAHGMNPELAAQYAANRVGVIRQLRYSQRNTNELDLVLSINGIPVFTAELKNPMTGQTVTNAIAQYQHDRDHREPLFEFKRRALVHFAVDTEQVFMTTRLAGSATHFLPFNKGLDGGAGNPPDPAGRAYRTAYLWEEVWQRDSLLDIFARFIHLQVEEKRTDDGRKIKKETMIFPRYHQLRAVRELEDAARTEGPGHNYLVEHSAGSGKSNTIGWLAHRLASLHNESDHKVFDSVIVITDRRVLDRQLQDTIYQFEHRQGVVQKIDEDSRQLAEALTNSVPIIISTLQKFPFVARQLARMAEERREGADGILPTRRCAVIIDEAHSSQSGETATDLKEVLGGHVLREEAARYAVDEGVDNLDELYRSMAKRGRQTNLSFFAFTATPKHKTLAVFGRDEAGKAGQPFHRYTMSQAIEEGFIMDVLKNYTTYATYYKLVKASEDDPNVERKQAAKALARFMRLHPYNIAQKTEVMVEHFNAVTRHKVGGKAKAMVVTGSRLEAVRYKLAFDAYIREKGYSWIKTLVAFSGEVVDDELPGKTWTEVGMNGGIKEGVLPEKFDSSEYQVLLVAEKYQTGYDQPLLHTMYVDKRLAGIQAVQTLSRLNRMHPLKEDTFVLDFVNDRQEIKEAFKQYHEGAEMGEEADPNQMYAIKAELDASGIYLLEEMQRFIGIYFKPKQRQSPADHQAMNEGHHHHHH | not soluble |
| MRGIHRLSALLVKSASQGKYCDGAGLWLNVRKDNTRSWFFRYTYHNKRREMGLGPVAQLSLKEARELAKHYSAILREGNDPIVFREQTVLKQQSNIFSEIATAAFESKKAELKNEGKNGRWFSPLELHVIPHIGSLSIEKLTANIIRNVLAPLWHEKADTARKALNRINICLKYAAALGLDVDLQACMKARALLGKPRATSTNIPAMPWQEVPAFYQSLDDKILSNLALKLLILTGVRSYPLRYLRLEQIDKDIWTIPKENMKGIVGKVSDFRVPLSHEALKMIEKSLPFEKNGFLFAGSSGKPISDVTLSKFMKDKGFDYRPHGFRSSLRDWIAETTSTPFEIAETVLAHSVGSSVTKAYMRTDFLEQRHTLMEQWAAFITGAT | not soluble |
| MLTSDPSESTAHLQRTISNLSARNAKLAELLKASRDKLSILQDQLEDLAAPPSTYGTFLEFSGGRETAEVFTAGRHMRLRISPDVEKAELVPGVQVRLGEASQVVEVCDISTTGQLATLVELLADNRGLICDHTGEERVVKLAAALTEGVDKLPKAGDTLLVDPRAGYAFEVIPKTEVSTLA | soluble |
| MHHHHHHSSGVDLGTENLYFQSMSRVLQAEELHEKALDPFLLQAEFFEIPMNFVDPKEYDIPGLVRKNRYKTILPNPHSRVCLTSPDPDDPLSSYINANYIRGYGGEEKVYIATQGPIVSTVADFWRMVWQEHTPIIVMITNIEEMNEKCTEYWPEEQVAYDGVEITVQKVIHTEDYRLRLISLKSGTEERGLKHYWFTSWPDQKTPDRAPPLLHLVREVEEAAQQEGPHCAPIIVHCSAGIGRTGCFIATSICCQQLRQEGVVDILKTTCQLRQDRGGMIQTCEQYQFVHHVMSLYEKQLSHQS | soluble |
| MGSDKIHHHHHHENLYFQGMLNFTVGPVMSSEEVRAIGAEQVPYFRTTEFSSTMLENEKFMLEYAKAPEGSKAVFMTCSSTGSMEAVVMNCFTKKDKVLVIDGGSFGHRFVQLCEIHEIPYVALKLEHGKKLTKEKLYEYDNQNFTGLLVNVDETSTAVLYDTMMIGEFCKKNNMFFVCDCVSAFLADPFNMNECGADVMITGSQKVLACPPGISVIVLAPRGVERVEKSKVRTMYFDLKDALKNQERGQTPFTPAVGILLQINERLKEIKKHGGADAEVARIASQAADFRAKIKDLPFELVSESPANGVTSVHPTTANAYDIFLKLKDEYGIWICPNGGEMKDTIFRVGHIGALTHEDNTTLVNAFKDLQKRNLL | soluble |
| SQDPYFKIANWTNEHDDFKKAEMRMDEKHRKKVDKVMKEWGDLETRYNEQKAKDPKGAEKFKSQMNARFQKTVSSLEEEHKRMRKEIEAVHEERVQAMLNEKKRDATHDYRQALATHVNKPNKHSVLQSLKAYIRAEEKDRMHTLNRYRHLLKADSKEAAAYKPTVIHRLRYIDLRINGTLAMLRDFPDLEKYVRPIAVTYWKDYRDEVSPDISVEDSELTPIIHDDEFSKNAKLDVKA | soluble |
| MKKSPKISLILEAFQNLEKAYVDLKKNLEIPKEEFVKNKLVQDRVRIDFNLAFESTMRVCRHLSAVYGVKTSSRDCLPKIAEHIGLPFADRLKKFSEFYFRYRDLKDTVSPEELYDFLKENLVLFKEFARGVVEYIKKTTGNYLLIDFDLLNEKAKFIKDSVKKIDFVLSQGEEEFKKTPMYYDRVKYFYQVAYDSLFDICKHLAPKFGIKKFGDDCLTKMVEKGVIPPEYYETVLKMTLLKNKLISTWEVSPEELYRSLKELNDKFIPVLREISKSLKLLLEKKAKEVGKEA | not soluble |
| MAHHHHHHMGLEIFEIDTSTPHTGVVIDGTTACREANSGWVTLRAKTPLSAGQCQWAMKVIDQGEGNDGSGLMMGLLPRLNSQQEVAMGSKYISELGGWCLSRAGDSYGCWKCDKMPFSTGCVVEFDWDAASRTLYIVSGKRKASGHIPNVSEADVVYPAFSMFYLNQKLAFV | soluble |
| MIKINISQNFLVAKGHALFAEKGKDIVCAAISGIIFGGVAWFEPDKIEFTENKLVPSIALKLIDPTPNVAVAFSVITVQLKAIANSYPNHIVINEESYE | soluble |
| MPPKKQQEVVKVQWGRPGNNLKTGIVGMPNVGKSTFFRAITKSVLGNPANYPYATIDPEEAKVAVPDERFDWLCEAYKPKSRVPAFLTVFDIAGLTKGASTGVGLGNAFLSHVRAVDAIYQVVRAFDDAEIIHVEGDVDPIRDLSIIVDELLIKDAEFVEKHLEGLRKITSRGANTLEMKAKKEEQAIIEKVYQYLTETKQPIRKGDWSNREVEIINSLYLLTAKPVIYLVNMSERDFLRQKNKYLPKIKKWIDENSPGDTLIPMSVAFEERLTNFTEEEAIEECKKLNTKSMLPKIIVTGYNALNLINYFTCGEDEVRSWTIRKGTKAPQAAGVIHTDFEKAFVVGEIMHYQDLFDYKTENACRAAGKYLTKGKEYVMESGDIAHWKAGKR | soluble |
| SLKWDNSYSVHNAKIDEQHKKLFKLAAKVEVVSDRSVSKNEVKELLAEFFNYMKDHFNDEEKYMQLIGYPNLEEHRKIHKEIIQTMINLIKDIKSTNDLKEKLYIVAKKWLLEHILYEDMKVEKWRSSSLSTDDGGDVS | soluble |
| NIDLDIHARENIANITNAMIELVSQDCHWLKVWFEWSASTRDEVWPLFVSTNRTNQLLVQNMFIKAIERGEVCDQHDSEHLANLFHGICYSLFVQANRFKGEAELKELVSAYLDMLCIYNREH | not soluble |
| MGSDKIHHHHHHMNHPSVFHPGPAAISPQQRLLLMHEGEWEDFIEECVRQLQKEGNYVEVVALGGSGDKGRDVCGYSKEYPAAGTWDLYQAKHYDSPLTPSEFFPELAKFVTCVWREDYTRPAKYFICASRDVGTTLFDLLKNPVRLKERLLDDWRKKGGKFGKFKQPLDADLEKFIEVFPFDVVKRLPPMELLSIHERDTASYWARFGVLAPRENDPEVPPKPVSSESTYVTALLRVYAEHAQVKIDDVPDIPPAHGAHFKAQRRLFYSAEGLHRFSRDKLPGAFEALLDEVENGIGAELTFPHESGFVRLHSVLKTANVLQIMNNPLRARLRSGDLQGSCHHLANQGRAQWVESDEADGESV | not soluble |
| MELFTFIPYFLLLEREESDRNTLANANTEFIREVYELQRVEKDVTLVFFQLQYLSCKLVILREHYRTAQKEHLPCYAYIIGTLEYLKGLLDRCRFIHKCGSAIAPACLPTTEGDPPVCWTAEVICLMELLYACHELKMFNGGEVTLGRVVEYVCHVLGVNVKNASSYYARMRRRKAGDRTYFIDRLREVLLKRMEDDDEGHRRRNR | not soluble |
| HISLNPDLANEDEVNSCDYWRHCAVDGFLCSCCGGTTTTCPPGSTPSPISWIGTCHNPHDGKDYLISYHDCCGKTACGRCQCNTQTRERPGYEFFLHNDVNWCMANENSTFHCTTSVLVGLAKN | soluble |
| MPKVISQKEFNILSRTKERVNFQIVYTKQRNGLHKAAKEYFFKDKDFTIIEDTPDTPDQPDGPCITKGPKEPGGPEEPNGPDKPEDPKDPDTPDVSEGPKEQGGQKDPGGPDDPSEGKQKVSKPDKYVTHRELDEKLKDFATKADFKRVEDKVDVLFELQKTQGEQIKVQGEQIKAQGKQIEQLTETVKVQGEQIRAQGEQIKAQSEEIKEIKVEQKAQGEQIKELQVEQKAQGKTLQLILKTLEKMNERLEKLESK | soluble |
| AKGDPHVLLTTSAGNIELELDKQKAPVSVQNFVDYVNSGFYNNTTFHRVIPGFMIQGGGFTEQMQQKKPNPPIKNEADNGLRNTRGTIAMARTADKDSATSQFFINVADNAFLDHGQRDFGYAVFGKVVKGMDVADKISQVPTHDVGPYQNVPSKPVVILSATVLP | soluble |
